Literature values in article PMC12498412.

Molecular target: Barnase (Bacillus amyloliquefaciens) (UniProt P00648)
Sequence (P00648 48-157): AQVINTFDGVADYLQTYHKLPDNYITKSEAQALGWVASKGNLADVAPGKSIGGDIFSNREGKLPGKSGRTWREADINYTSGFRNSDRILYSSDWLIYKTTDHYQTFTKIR

Chain of Barstar (P11540 2-90): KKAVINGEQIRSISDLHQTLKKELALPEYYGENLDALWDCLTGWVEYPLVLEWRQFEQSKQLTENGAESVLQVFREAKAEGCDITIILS

Kd: 64 nM
Substance: Barstar (from UniProt P11540)
